Molecular target: CD23 coated on ELISA plates (UniProt P06734)
Experiment: ELISA, CD23 coated, pre-formed mAb:IgE complex added, anti-human IgG Fc-HRP detection

- EC50: 0.0416 µg/mL
Substance: pre-formed UB-221:IgE complex (from UniProt P01854 1-428)

— US20230122862A1
